Laboratory results taken from paper PMC6607443 (2019).

Molecular target: dynein light chain LC8 (UniProt P63167 1-89)
Experiment: ITC

dynein light chain LC8, sequence (P63167 whole entry): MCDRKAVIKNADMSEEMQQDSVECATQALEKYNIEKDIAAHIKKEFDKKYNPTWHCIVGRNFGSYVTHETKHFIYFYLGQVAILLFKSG

Row | Binder | Kd [nM]
1 | HPETQDSSTQTDTS [SPAG5 peptide] | 1300
2 | APMSCDKSTQTPSP [BCL2L11 peptide] | 200
3 | PAPPSYSDKGVQTPSK [ZFPM1 peptide] | 1600
4 | ARAGRSVSTQTGSM [CIZ1 peptide] | 800
5 | SEIHGISRMTQTPQ [RavL peptide] | 8000
6 | SSSTRSIDTQTPSV [GLCCI1 peptide] | 4900
7 | YDSMDHLDKQTQTPKT [CCL2 peptide] | 4700
8 | PRATAEFSTQTPSP [bassoon (BSN) peptide, modified version with the TQT motif near the C-terminus] | 6300
9 | EKELRHIGTQISSD [ICE1 peptide] | 3600
10 | NQSFTTASTQTPPQ [CAPRIN2 peptide] | 2600
11 | QDFMKHLDKKTQTPKL [CCL7 peptide] | 2800
12 | PVLTSATGTQTSPA [MUC3A peptide] | 4500
13 | DDHSREKGTQTSGD [SLC9A2 peptide] | 2200
14 | YGCTRHQSVQTEDG [MAST1 peptide] | 1700
